Test results taken from the Human Domainome abundance scans (Beltran et al. 2025).
± gives the uncertainty stated by the source.

B1: Tripartite motif-containing protein 44, residues 174 to 218; numbered along this chain, Q96DX7 (parent)
chain: VAKRKCPDHGLDLSTYCQEDRQLICVLCPVIGAHQGHQLSTLDEA

Variants of: B1
Test: abundance fitness (aPCA) (normalised: wild type 0, dead -1); higher = more abundant; growth selection in yeast, the domain comes from the species named
Details: Homo sapiens
VAKRKCPIHGLDLSTYCQEDRQLICVLCPVIGAHQGHQLSTLDEA [D8I] gave an abundance fitness of 0.029 ± 0.042.
In the case of VAKRKCPPHGLDLSTYCQEDRQLICVLCPVIGAHQGHQLSTLDEA [D8P], the abundance fitness is reported as -0.827 ± 0.063.
For VAKRKCPNHGLDLSTYCQEDRQLICVLCPVIGAHQGHQLSTLDEA [D8N], the abundance fitness was -0.045 ± 0.058.
VAKRKCPWHGLDLSTYCQEDRQLICVLCPVIGAHQGHQLSTLDEA [D8W] gave an abundance fitness of -0.105 ± 0.032.
In the case of VAKRKCPHHGLDLSTYCQEDRQLICVLCPVIGAHQGHQLSTLDEA [D8H], the abundance fitness is reported as 0.038 ± 0.058.
For VAKRKCPAHGLDLSTYCQEDRQLICVLCPVIGAHQGHQLSTLDEA [D8A], the abundance fitness was 0.016 ± 0.029.
VAKRKCPLHGLDLSTYCQEDRQLICVLCPVIGAHQGHQLSTLDEA [D8L] gave an abundance fitness of 0.048 ± 0.031.
Variant VAKRKCPKHGLDLSTYCQEDRQLICVLCPVIGAHQGHQLSTLDEA [D8K] has an abundance fitness of 0.047 ± 0.047.
Work on VAKRKCPCHGLDLSTYCQEDRQLICVLCPVIGAHQGHQLSTLDEA [D8C] yielded an abundance fitness of -0.103 ± 0.035.
In the case of VAKRKCPYHGLDLSTYCQEDRQLICVLCPVIGAHQGHQLSTLDEA [D8Y], the abundance fitness is reported as 0.049 ± 0.051.
VAKRKCPEHGLDLSTYCQEDRQLICVLCPVIGAHQGHQLSTLDEA [D8E] showed an abundance fitness of 0.044 ± 0.029.
VAKRKCPQHGLDLSTYCQEDRQLICVLCPVIGAHQGHQLSTLDEA [D8Q] showed an abundance fitness of 0.028 ± 0.044.
VAKRKCPFHGLDLSTYCQEDRQLICVLCPVIGAHQGHQLSTLDEA [D8F] gave an abundance fitness of -0.034 ± 0.041.
For VAKRKCPDHGDDLSTYCQEDRQLICVLCPVIGAHQGHQLSTLDEA [L11D], the abundance fitness was -0.198 ± 0.047.
VAKRKCPDHGYDLSTYCQEDRQLICVLCPVIGAHQGHQLSTLDEA [L11Y] showed an abundance fitness of -0.031 ± 0.04.
VAKRKCPDHGMDLSTYCQEDRQLICVLCPVIGAHQGHQLSTLDEA [L11M] gave an abundance fitness of -0.05 ± 0.12.
For VAKRKCPDHGPDLSTYCQEDRQLICVLCPVIGAHQGHQLSTLDEA [L11P], the abundance fitness was -0.778 ± 0.084.
Work on VAKRKCPDHGFDLSTYCQEDRQLICVLCPVIGAHQGHQLSTLDEA [L11F] yielded an abundance fitness of -0.083 ± 0.039.
In the case of VAKRKCPDHGTDLSTYCQEDRQLICVLCPVIGAHQGHQLSTLDEA [L11T], the abundance fitness is reported as -0.147 ± 0.17.
For VAKRKCPDHGKDLSTYCQEDRQLICVLCPVIGAHQGHQLSTLDEA [L11K], the abundance fitness was 0.016 ± 0.097.
VAKRKCPDHGEDLSTYCQEDRQLICVLCPVIGAHQGHQLSTLDEA [L11E] gave an abundance fitness of 0.005 ± 0.032.
Work on VAKRKCPDHGCDLSTYCQEDRQLICVLCPVIGAHQGHQLSTLDEA [L11C] yielded an abundance fitness of -0.009 ± 0.031.
VAKRKCPDHGRDLSTYCQEDRQLICVLCPVIGAHQGHQLSTLDEA [L11R] gave an abundance fitness of 0 ± 0.028.
For VAKRKCPDHGVDLSTYCQEDRQLICVLCPVIGAHQGHQLSTLDEA [L11V], the abundance fitness was -0.183 ± 0.028.
Variant VAKRKCPDHGGDLSTYCQEDRQLICVLCPVIGAHQGHQLSTLDEA [L11G] has an abundance fitness of -0.169 ± 0.026.
For VAKRKCPDHGHDLSTYCQEDRQLICVLCPVIGAHQGHQLSTLDEA [L11H], the abundance fitness was 0.033 ± 0.05.
Variant VAKRKCPDHGSDLSTYCQEDRQLICVLCPVIGAHQGHQLSTLDEA [L11S] has an abundance fitness of -0.189 ± 0.034.
Variant VAKRKCPDHGQDLSTYCQEDRQLICVLCPVIGAHQGHQLSTLDEA [L11Q] has an abundance fitness of -0.024 ± 0.03.
With VAKRKCPDHGWDLSTYCQEDRQLICVLCPVIGAHQGHQLSTLDEA [L11W] the abundance fitness was -0.214 ± 0.028.
VAKRKTPDHGLDLSTYCQEDRQLICVLCPVIGAHQGHQLSTLDEA [C6T] gave an abundance fitness of -0.783 ± 0.072.
Variant VAKRKQPDHGLDLSTYCQEDRQLICVLCPVIGAHQGHQLSTLDEA [C6Q] has an abundance fitness of -0.889 ± 0.068.
Work on VAKRKMPDHGLDLSTYCQEDRQLICVLCPVIGAHQGHQLSTLDEA [C6M] yielded an abundance fitness of -1.04 ± 0.12.
VAKRKPPDHGLDLSTYCQEDRQLICVLCPVIGAHQGHQLSTLDEA [C6P] gave an abundance fitness of -1.07 ± 0.17.
In the case of VAKRKKPDHGLDLSTYCQEDRQLICVLCPVIGAHQGHQLSTLDEA [C6K], the abundance fitness is reported as -0.874 ± 0.073.
For VAKRKVPDHGLDLSTYCQEDRQLICVLCPVIGAHQGHQLSTLDEA [C6V], the abundance fitness was -1.07 ± 0.067.
Variant VAKRKYPDHGLDLSTYCQEDRQLICVLCPVIGAHQGHQLSTLDEA [C6Y] has an abundance fitness of -0.92 ± 0.095.
In the case of VAKRKRPDHGLDLSTYCQEDRQLICVLCPVIGAHQGHQLSTLDEA [C6R], the abundance fitness is reported as -0.999 ± 0.04.
In the case of VAKRKHPDHGLDLSTYCQEDRQLICVLCPVIGAHQGHQLSTLDEA [C6H], the abundance fitness is reported as -1.1 ± 0.11.
Variant VAKRKNPDHGLDLSTYCQEDRQLICVLCPVIGAHQGHQLSTLDEA [C6N] has an abundance fitness of -0.889 ± 0.11.
Variant VAKRKWPDHGLDLSTYCQEDRQLICVLCPVIGAHQGHQLSTLDEA [C6W] has an abundance fitness of -1.06 ± 0.069.
VAKRKCPDHMLDLSTYCQEDRQLICVLCPVIGAHQGHQLSTLDEA [G10M] showed an abundance fitness of -0.078 ± 0.031.
VAKRKCPDHVLDLSTYCQEDRQLICVLCPVIGAHQGHQLSTLDEA [G10V] gave an abundance fitness of -0.519 ± 0.03.
VAKRKCPDHTLDLSTYCQEDRQLICVLCPVIGAHQGHQLSTLDEA [G10T] gave an abundance fitness of -0.347 ± 0.033.
Variant VAKRKCPDHLLDLSTYCQEDRQLICVLCPVIGAHQGHQLSTLDEA [G10L] has an abundance fitness of -0.116 ± 0.029.
VAKRKCPDHYLDLSTYCQEDRQLICVLCPVIGAHQGHQLSTLDEA [G10Y] showed an abundance fitness of -0.125 ± 0.082.
For VAKRKCPDHFLDLSTYCQEDRQLICVLCPVIGAHQGHQLSTLDEA [G10F], the abundance fitness was -0.206 ± 0.053.
VAKRKCPDHQLDLSTYCQEDRQLICVLCPVIGAHQGHQLSTLDEA [G10Q] showed an abundance fitness of -0.027 ± 0.031.
In the case of VAKRKCPDHNLDLSTYCQEDRQLICVLCPVIGAHQGHQLSTLDEA [G10N], the abundance fitness is reported as 0.118 ± 0.077.
VAKRKCPDHPLDLSTYCQEDRQLICVLCPVIGAHQGHQLSTLDEA [G10P] gave an abundance fitness of -0.776 ± 0.052.
For VAKRKCPDHWLDLSTYCQEDRQLICVLCPVIGAHQGHQLSTLDEA [G10W], the abundance fitness was -0.311 ± 0.034.
Variant VAKRKCPDHHLDLSTYCQEDRQLICVLCPVIGAHQGHQLSTLDEA [G10H] has an abundance fitness of 0.002 ± 0.04.
VAKRKCPDHELDLSTYCQEDRQLICVLCPVIGAHQGHQLSTLDEA [G10E] showed an abundance fitness of -0.074 ± 0.032.
With VAKRKCPDHILDLSTYCQEDRQLICVLCPVIGAHQGHQLSTLDEA [G10I] the abundance fitness was -0.445 ± 0.14.
With VAKRKCPDHSLDLSTYCQEDRQLICVLCPVIGAHQGHQLSTLDEA [G10S] the abundance fitness was -0.064 ± 0.03.
Work on VAKRKCPDHRLDLSTYCQEDRQLICVLCPVIGAHQGHQLSTLDEA [G10R] yielded an abundance fitness of -0.147 ± 0.026.
In the case of VAKRKCPDHCLDLSTYCQEDRQLICVLCPVIGAHQGHQLSTLDEA [G10C], the abundance fitness is reported as -0.143 ± 0.039.
VAKRKCPDHKLDLSTYCQEDRQLICVLCPVIGAHQGHQLSTLDEA [G10K] gave an abundance fitness of -0.106 ± 0.041.
